Source: the supplement of paper PMC9170038

Tested on: K4 kissing-loop RNA reporter
Experiment: apparent KD of K4 kissing-loop reporter; higher = weaker reporter binding
Conditions: Eterna round: R107
Description: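 RNA-MaP round R107: designed RNA switches with theophylline, tryptophan, arginine or FMN aptamers are transcribed on-chip within common flanks. They are titrated with a labelled K4 kissing-loop RNA reporter in RNA-MaP buffer (100 mM Tris pH 7.5, 80 mM KCl, 4 mM MgCl2), without ligand or with the indicated ligand. Median apparent KD per design.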

[1] = input ligand: theophylline 20 uM
[2] = input ligand: tryptophan 2.4 mM
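Further: bound reporter read as fluorescence of individual clusters on recovered sequencing chips by microscopy, with normalized cluster intensities fitted with a binding model.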

Row | Sequence | apparent KD of K4 kissing-loop reporter (input ligand: FMN 200 uM) [µM] | apparent KD of K4 kissing-loop reporter (input ligand: arginine 13.2 mM) [µM] | apparent KD of K4 kissing-loop reporter (input ligand: none) [µM] | apparent KD of K4 kissing-loop reporter [1] [µM] | apparent KD of K4 kissing-loop reporter [2] [µM]
1 | UUAGUACAUAGAGAUACCAGCCAUCGAAGUGAUGUUUCGAGAAAUAAUGAUGUUGGUAUAGGCCCUUGGCAGCUCUAUGUACAUU [AK1 Exc Theophylline B] | 0.103 | 0.0954 | 0.104 | 0.0947 | 0.0974
2 | UUCAGACUACUACUAGACAGUAGUAUAUACUAGGAUAUCCAGAUAUGGAGAAGGAGUGAUGUUCCCUAGUAGUAGUGAAUUAAAU [KL-XFMN-A5] | 0.661 | 0.38 | 0.387 | 0.375 | 0.335
3 | UUCAGUGAUGUUGAACACUGUUGUAUAAACUAGGAUAUGCUGAUAAGCAGAAGGAGUGAUGUUCCGUUCAACAUCAGAAUUAAAU [#08 K4 FMN A Exclusion] | 0.662 | 0.415 | 0.488 | 0.496 | 0.269
4 | UUCAUCGUGGUUCGCGGGUGGUAUGAAAAGCGAGGACCGGUACGGCCGCCACUCGGUUCCGCUUGUUGAGUGAUGUUCAAUAUUU | 0.207 | 0.281 | 0.251 | 0.35 | 0.229
5 | UUCUACGUGCAAGGAUAUCCAUACGCUGCCCAGCGGGUAGCGAUAUAUGGAGUGAUGUUCCAUGUAGGAGAAGGUGCACUGUCCU [Atrea] | 0.149 | 0.386 | 0.457 | 0.466 | 0.475
6 | UUCUAGCCGAAAGGCUAGUCGGCUUCAGAUACCAGUCGCGAAAGCGACCCUUGGCAGCUGUGUAGUGAUGUUGCAAAGAAAGCCG | 0.556 | 0.435 | 0.618 | 0.262 | 0.524
7 | UUGAGCCGGACCCAAGUCCGGCUCUGCGAGCGAGGACCGGUACGGCCGCCACUCGGUGCAGUGAUGUUGCAUGGCCGCAAGGCCG [#2 Exclusion - Tryptophan A Attempt #7 (HarryS)] | 0.439 | 0.294 | 0.377 | 0.372 | 0.46
8 | UUGCAAAAGUCGGCCGCCACUCCGGGCCCUAUAAAUGGGCGCAGUGAUGUUGCGGCUAGGCCUCUGAGGACCGGGACUUUGUAGC [Aenonlebe] | 0.079 | 0.103 | 0.142 | 0.111 | 0.199
9 | UUGCAUGCUAGGGAAACCUAGCAUGCAUGCCGAGGACCGGUACGGCCGCCACUCGAACGAGUGAUGUUCGUUGACCAAAAUAAAA | 0.227 | 0.468 | 0.337 | 0.635 | 0.282
10 | UUGGAUUGAUGAGAGUUGAUUUGGUAGGAAGGAGCGGCCGAAAGGCCAGGUAGGUCGCCUAUUGACAGUGAUGUUGUUAUAUGGU [#16] | 0.215 | 0.228 | 0.237 | 0.489 | 0.226
11 | UUGGGCAACCGAGAUACCAGUCAAAUCGCUCUGGAGUGAUGUUCCGGAACAUGCGGAGAAGACCCUUGGCAGCUCAAGACGGACA [Exclusion Theophylline B GF 1] | 0.111 | 0.107 | 0.107 | 0.113 | 0.0912
12 | UUGGGCAGUGAUGUUGGCUAGGCCACAGAUACCAGACGCAUGCACGUCCCUUGGCAGCUGCGAAAGUUAGACUUGUAAUGAUAGU [theeternabot_sameState_KL_Theo_A_45] | 0.418 | 0.181 | 0.321 | 0.338 | 0.217
13 | UUGUUUCCGACGGCCGCCACUGGUUUCUUUGUUGUAGUGAUGUUGCGGUGGAAUGAUAGCGUUAACAGGACCGGGUCGGUGAGAC [theeternabot_sameState_KL_Trp_B_42] | 1.28 | 0.547 | 0.774 | 0.58 | 0.451
14 | UUUAAAUAUAGUGAUGUUAUAUAACAAUGACGAGGACCGGUACGGCCGCCACUCGAGAGAGAUAAUGGUCUAUAGAAUCUAUAGC [AstrosSSTryA#4] | 0.726 | 0.622 | 0.803 | 0.87 | 0.508
15 | UUUACCAGUGAUGUUGGCCUAGUAUUUACACGAGGACCGGUACGGCCGCCACUCGCAUUAUCGGACUUUGAUAAGCAUAUUAUAU [theeternabot_sameState_KL_Trp_A_28] | 0.317 | 0.283 | 0.318 | 0.384 | 0.199
16 | UUUAGAUGAAGUGAUACCAGACUUGAAAGUGAUGUUUUCCAAUAAUUUAAAUUAUUAGCUGUCCCUUGGCAGCACAGUUUAUUUA [JR_ExcTheophyB_Sub008] | 0.229 | 0.326 | 0.282 | 0.346 | 0.193
17 | UUUCGGUUCUGAGGAUAUUCGGACAAAUAUAGUGAUGUUGUAUAAGGAGGAGGGUGUUGGCAGUGAGGAGAAGGCAGAAGAGGAU [ExFMNB.T] | 1 | 0.677 | 0.946 | 0.524 | 0.622
18 | UUUCGUCUCUGAGGAUAUCAGAGGAGAGUGAUGUUCUCCCAUAGCCCAGUGAUGUUGGAUGCUAUCUGAGAAGGCAGUGGGCGAA [Same State FMN B GF 13] | 0.143 | 0.141 | 0.164 | 0.144 | 0.155
19 | UUUCUACCGGGAAGGAGCGUGAAUGAUAAUGGAUAUAGUGAUGUUAUAUAUAAGAACGAAUCGCAGGUAGGUCGCCCGGAUGACU [SSArgB.S] | 0.311 | 0.333 | 0.352 | 0.397 | 0.31
20 | UUUGUAUCGGGAAGGAGCGUGAAUGAUAAUGAAUAUAGUGAUGUUAUAUAUAAGAACGAAUCACAGGUAGGUCGCCCGGAUGAGU [SSArgB.N] | 0.548 | 0.387 | 0.486 | 0.548 | 0.46
21 | UUUUUAAUCGCAGAUACCAGUCCAGAAUGAAUACUAUAGUGAUGUUAUAAUAAAGGGAAGGACCCUUGGCAGCUGUAAUAUAUUU [AstrosSsTheB#5] | 0.386 | 0.315 | 0.416 | 0.318 | 0.298
22 | UUUUUAUAAGAGGAUACCAGUACAAAUAAAGUACAUUAAUAGUAGAGUGAUGUUCUAAAGUACCCUUGGCAGCUUAGAUUAAGUU [ExTheophylB.D] | 0.158 | 0.268 | 0.172 | 0.255 | 0.117
